{"source": "the NTF2 design screens of Basanta et al. (2020)", "data": [{"experiment": "protease stability score; higher = more stable; yeast display proteolysis, trypsin and chymotrypsin;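 further: relative to predicted unfolded state with 0 unfolded-like and 1 meaning tenfold more protease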", "values": [{"sequence": "DERESLLEKLLRLWIELLKTGDEDTMLKLADPDAKYHVNGKDFHGWELASRIWFEERERLGIKHVHDHEIRFQGEKTELHGILLFDGVDVKFRIIIIVFNGRLHHVIVERD", "protease stability score": 1.53}, {"sequence": "SEQWEEAKRLTDLYLTTSHTGDEQLSREFMDPHARTIVDGVEVHGMEEWANRFMRFVKQLRVDFRIHDMDVQGEKVDVDIRIRFVFNGVEHRIESILIVHKINGRWLMKEQRII", "protease stability score": 1.34}, {"sequence": "DEEEEDSEDAVRFIMLALDTGDEKLLTSLADPNMRLDVNGREFHGREDFIHFLEEVRKKLGVDRIRTHVRETHVINGRVHVRGELRWNGRTHESHVHIIKIDGKWVIKSVHIR", "protease stability score": 2.11}, {"sequence": "HEEEKQMREAVEEAYHVLRTGDEKTIRELADPDVRLDINGKEIIGRELFFRHLWYEFYFFKNMRITIKHYEIQGEKVHIHIEIDWNGKELRSHMEVDKVDGRWLLHSVIFR", "protease stability score": 0.783}, {"sequence": "DEEEKYIKSLAKLISHAISTGDFELFHKLVDPDVRLIVDGVDLHGWELATKWIEEIRVEDHEVRVKEVRFVDGRANSDGEVILDGEYNGREKRVERKTILVSLKVDGRWTVKSLEIK", "protease stability score": 0.882}, {"sequence": "TEREEENRIARQLFEHDWETGDEDSIHRLADPHALLTDENEKLHGREDVTDWIIKVSRKYKNLQFRVTDQELQGNKLIIYSTSKYNGRTFHLIFFVLKVDGRWHFHHMRIE", "protease stability score": 1.36}, {"sequence": "RDEDHELKEMRRMIHEIIMTGDEDKWKKMADPHVQLHIGDKHHHGRDHVSRILTELRVHHFDVEHIHHEFINGRATLRIEGTLHGIINGVEKKVETEIRIIIIKFNGVWYIESQEFHVI", "protease stability score": 0.492}, {"sequence": "SEEEQHAKHMSHLISHVLKTGDEERWKELMDPHTRLIVGDKEFHGREALHELKRRVDHMKDVLIHSVEVQGNKADFDVEVHVKVDGRHERLKMRWIVDKVNGRWVQSEIIIH", "protease stability score": 1.65}, {"sequence": "DEENHHTREIFKMTLKEVFTGNEEMTTRLLDPHVRVQVGDKTIHGWKHFTHIFFRLRHEFGVDHVQLRHLEIIGNKAVIHFSVYVGEWTYEFTIHALKVNGRWVLESLEVHQI", "protease stability score": 1.5}, {"sequence": "SHWDQRLEELSKLVVDHLNTGDFEEIKRLVDPHMRLEIGDKTRIGREQIHEWLEEFLRRYKNARVEIRIEHHELYGEKFFADTRLNLHVGDKHHHFDTRLEIHVIDGKIHSMSMRIH", "protease stability score": 1.1}, {"sequence": "DEEERFAEEAVEIIIRDWMTGDEELLHRNADPHMRIEVGDKTIHGMENFVKFLLEIRMKDSRLRVEDVKHYNGKLHLTFKSEVDGRVNGRRKTLTFDIKMIIEKVDGRWILKTIHIV", "protease stability score": 1.89}, {"sequence": "SEESEKLERMMRLIMHLLWTGDEETFKRLADPDTRFIYGDFEVHGREDVSRMWIKLLNELRIHSLHVEEVHTIDGRIHAKTEVDGRYNGQHERTKLELIIVIINGRIHTVEIRPK", "protease stability score": 1.22}, {"sequence": "DEETEWLERLVRVILHALDTGDEDEMNQNADPHTRVRVGDKEYHGRELFLDVFRERVHRLGIDHSNLREFDIQGDFFHLDTRLQVGDKFLEVNLIFHVINGRITIVRIDYR", "protease stability score": 1.15}, {"sequence": "SEEEEQAKRVIDHVTRAIHTGDEDVLRRQFDPHVKIEVGDKDIHGWETMYEILTHIRIETESDVKDFKVQGDKLIMDVRLRFTIRIDGVEIHRQTTTNIIVHKVNGRWQMKKVEIR", "protease stability score": 0.409}, {"sequence": "SESEEFAREFLEHMEKFLRTGNWEEMKRNADPNVLLRIGDKHLHGREEYEEWLRKFLEHMRIREVEVKDLKIVGDKIFLIIRIRIHFDGREDQLDTILVMQKVDGRWIVTEIRVR", "protease stability score": 1.21}, {"sequence": "HEDEEIIERILREFLHYQNTGDEDELRKLADPNVRVIQGDKHFVGREEFRRWVHEHLSQVDHVELEIEDMRIVGDFVEIRGKLHNKAEGRSIKEEVRLVLFKFDGRWTLHDVRVH", "protease stability score": 2.09}, {"sequence": "TDEDEAAELIIRLLEELHHTGDEDKLRDLMDPHVRMDIDGKDFHGRETYLEHLHHRLVNWGVDRIKVEIRLKHSEIQGEKLILETDWIVIFDGVRYEMKVRLILIKVNGRWVLKSSHFK", "protease stability score": 1.32}, {"sequence": "TEEERHIKEMLELFLEFFKTGNEDLFKELADPHVRLHLNINGKKERVHGMDHAVKWLSQLRVHSFHLKDERAVDGVNEVDQESDVEWNGQRFETTVRLHVYIVNGKLHHLSIEIK", "protease stability score": 1.19}, {"sequence": "DDHHEELRKFVEELSRARETGDEELIESLIDPHVKINVGDKRLHGRRAVEILLHEWRVHFFHSERMEVYGDKARIEGHMNGEYNGRRHETKLEMYVHKVNGKWILQHFTVE", "protease stability score": 2.17}, {"sequence": "DEEEKEAYIWLELLLEHERTGNEEEIMHLADPHTRLQFNGVESHGRERFFEHVRHKIRHMRVEIRIRNFEFQGEYAHLHGEDILRIGDKTERIDMRFVLLVVNGRIKSIHIHVH", "protease stability score": 0.694}, {"sequence": "SEIEEESEEHLNLYMHAMHTGDWHTLERLADPNVRMDVNGQEHHGREEFVKVLVHMIEHLGIDHVRVKHLDLQGDKLHADTTEEVNGRRIHTILDVTKINGRWFITSLEIH", "protease stability score": 0.495}, {"sequence": "TEEEKEVEDLLRVVIHALQTGDEKKISELVDPNMRVKIGDKINHGWENAFEFHVRFIKELGVDHINIHPRHVRLIGDKVEVHLNLIIHVNGRDHETEIRLTAIKVNGRWHIESFEEQ", "protease stability score": 1.91}, {"sequence": "SEEEHHVVRMMELLIDLLMTGDEEVFDSLVDPDVKSNINGVHSVGMESINEIFRRYVDFFKNVKVDVHLRDREAQGDKHITYGVRIERFDGKQFTIDTRLELKVVNGRIKDVKVDIK", "protease stability score": 1.46}, {"sequence": "TEDEEDSLFAFDEWVKSVETGDEHTLSKLADPHTRLNVNGVDQHGRENMSHMMLRLANRYDHIEIRLHSWRLINGRIEVDSRVINVVGDKRIESNFHMFILKVNGRWLMHSVHFE", "protease stability score": 0.847}, {"sequence": "KELEEHELRLAKDMSKVIETGDEERLRRLADPHVKVHINGKTRHGREWMSHLLNLMLTELRVRHLHIKDVFEVNGVAHSETELDGEVNGREIELHTEIILVVVNGKIQRLEIRIE", "protease stability score": 1.06}, {"sequence": "TELEELMIKIIRLILRSHNTGDEDEQRKLLDPHVRWHIGDKEIHGRDLIIEHLKEVYERIDHIEFRENHVDIQGEKLHLDGRLIFIQGDKNIEFRVHYHFLIIDGVVDLIEVQIR", "protease stability score": 1.5}, {"sequence": "SEEEEQVTESFEHFFRARYTGDEHTLLRMMDPNVRVIVDGKDIHGWEEVIRYLVHIRIKRSELHDREIRVVNGRAIVHLDVHTDREVDGVRIETRIILILYAEKIDGRWVFKEVKIEVR", "protease stability score": 1.29}, {"sequence": "DRERRHEEQLYRDLIHAWFTGDEEWLRKYADPHVRVEIGDKLRHGMEWLAKMREDVHRHLGIDHIHIHDHYFFDGRVHMDFRINIGDKHHNLHLHIVNVDGKVRSFRFEIH", "protease stability score": 1.09}, {"sequence": "SEDEKDVKDAFDIWYESHITGNEEYARKMADPDTLSIVNGVRIHGMETWMHFLLKHQKELGIDVYTTDIHHVEVFDGRVKVDLRMREIFNGRHLEFETEVISEKIDGRWHVRSIRIT", "protease stability score": 1.36}, {"sequence": "DDHEKDLTDMARRNYHWWKTGDFDRVIDLLDPTTRLIVGDKKFHGWDEFSHALELFRKQLRPNDSKLKREEVYGDKMVIHSHLHGTVDGKEVHHDVIFTFVIIDGRIHLIIIEPR", "protease stability score": 0.516}, {"sequence": "DHEVAKTMMEEWQKALENGDDKKLKELYDPDGEWEADDEQDQGTEVIEKLMEKVKKQGLKFQVRKAKVEGDKFTVVYDLHVGNKTATFEVEVHVEGGRIKKVKAKADEEAKKLITEG", "protease stability score": 2.05}, {"sequence": "SEIEETTRQASEFNLHSFRTGDEKMVHELADPHVRTDFNGKRLHGRESLTKELDKLLKDLGVDHVRIEHVNIYNGRVDIIMRVEVGDKEWKITIIAIKIDGKWKLESIEME", "protease stability score": 0.132}, {"sequence": "HEEEEEARDLLKKLLEDFETGNEESLHEYADPNTRTIWDGVEFHGREWMLEIIKQIRVHSVHIHDVRLIDGVLIVKGRMDGDINGQRHTLEVNIFFLKINGRWFFHHMEFE", "protease stability score": 2.51}, {"sequence": "DKEDEDIKHLVDRIIHFWETGDFESLLKNVDPNARVEEIFNGKKYHSHGREEFERTLQEWLDRYKNVTIHIREVRMFNGVAIIHAELLIGDKRHEVHLHWFIYDGVLRHVRIQFE", "protease stability score": 1.49}, {"sequence": "DETKEAFDRAIEKLSRWMFTGDEDKVDHLMDPDVRIEQGDKELHGMEDARRYLTEIRVKVRDMKITHMRIYDGRIDIDGETHLEVKVGDKHLHIDTRVYIDSYKVDGRWFFHEIRIK", "protease stability score": 0.98}, {"sequence": "DETTEIQEKLAKELMRLLLTGNEEEIMKNADPDVREHVLVDGKHINNIGREEVHRVRRELLEKVKNLRIRINRVEIQGEKVRMETTLHIDGQDIHVIYIFIIINGRIKEVHIEIR", "protease stability score": 0.708}, {"sequence": "DEEERSAKDFSERVFEEDRTGDEERWERLADPNVRLDINGKEHHGRELVMKYRLEFLRRVKNMVIRLEHIEIRVFDGKLTLHIHGVINVDGKTIHFDLIIIVRKVDGRWRIDEVIIEIK", "protease stability score": 1.4}, {"sequence": "TEDEKLVEIALELWLRSLRTGDEDMFRELFDPNTRIFVNGVDHHGRHALEIVKERYDHVRDFHIELRSVHYVNGVLHVDGHFRMDIKYGDKRRIIENRTIMIIEKINGRWIFKHERLE", "protease stability score": 1.24}, {"sequence": "DEHKEEIKKFIEEWERSMITGDEDRLWELADPNTRLRQGEFEIHGMEILIEAEHRIVEKYKGLTIESIEMKHIDIINGVVVLYSKIRVRQGDKETEIFIIIYIIKINGQWRLHSLEIR", "protease stability score": 1.34}, {"sequence": "DEEEEYYRVAIEIWLRVMMTGDPKYFDRLADPHVRVEQGDKRLHGMEDWSKRLEHMRIDHINIHQFKVVNGKIHVDTEVRGDVDGVEFRTRMELIFEKVDGRWILRRIHIN", "protease stability score": 2.71}, {"sequence": "TEEEKMAEKLWEILVKNAQTGDEDKVLKLIDPHTRFTFNGQTHHGRDTFHHLWKILGVDHVEPHSIEVQGDKAHIDSRLYFNGQVRTYTIIVEKINGRWIVTTIDLH", "protease stability score": 1}, {"sequence": "SEIETILEKVLRELEHRKETGDEESFERYADPNVRMSVDGKDIHGREEVLRSWLETWKLMGVDHSHLHVTDLRIIGNKLEIDGIVRFNVGDKIVHRHSRLIMLKINGRWMIKQVEIH", "protease stability score": 1.22}, {"sequence": "DEVTEIAERFLEEFIQHHETGDEDRIRHLMDPHVRLTQGDKTLHGREEASRVVIELAKRIDHLHIKLTTIRVQGEKVYIHTELRMEVGDKELRFHVTFIFLKVNGRWRMHSVHIE", "protease stability score": 1.06}, {"sequence": "DEDTKMSEEALRILVEIWRTGDEDRFLELADPHTRILINGRELHGMEFFVTWLRKVKNLKIERIQLDHVRFIDGRAELETTIRLRYGDKHDDLTFKFISDKFDGRWVLSEIIII", "protease stability score": 2.15}, {"sequence": "SEHHEKLLHLTTLFLEAFWTGDEDIFHHLLDPNVKSIFNGREIHGRHIFSDLRRQIRVERTHVEHEQIVDGRVFMHGKSDGHINGRTHKSHLEIEIVVFDGKVERIKIELR", "protease stability score": 0.499}, {"sequence": "SEEQHHVEKVLWDFSHALMTGDWETVEDLVDPNVRIHINGKDFHGREEFHRLVREIRVHVEINLKSVEHIDGQATADTDVIVHLDVGDKQIDRRTRTEVIQQKFDGKWLIHTIIHR", "protease stability score": 0.956}, {"sequence": "DEDEEASKIFWEIWLHNVRTGDEHAINELVDPHVKMVYGDKTFHGMKMLERLYRELGVKHMEVRLDDERLINGVLTLDTRLIIRVDGRTIDIKTEIIALKVNGKWVVKSITYR", "protease stability score": 1.1}, {"sequence": "HDLEKFLDHFFEKLMKELETGDEQSWRRLADPRARLHINGKDFHGREFEHELRNKWGVSRVEEKLDSRDVIGNKLILDGSLSVNGKEIKAILFVQKVDGKWEFKEIEVH", "protease stability score": 1.34}, {"sequence": "SEINERTERLMKWLLHAILTGDEDLLSTLADPNVRVIVGDKSVIGMESWYRLFEEELRHLGIKHMQLDPRHVDTQGDKARVETRLRVWVDGVELTHETRLHLDVVNGRITKISIRIH", "protease stability score": 1.16}, {"sequence": "EERNKFAEDFSRIDTESHRTGDEHSLLRLFDPHARIHQGDFEMHGWEEFSRIMRHEIERYKNATFEVRVDRVDVQGDKMISDGRLHIHQGDKIREYRIFIIVTKVNGQWHIEEVHIV", "protease stability score": 1.11}]}]}
